Test: soluble on expression in E. coli; label from the status in PepcDB or PDB records

Sequence	soluble on expression in E. coli
MMDHAHDSCSPTLRRDLEVTGQLQPEKAVDLAAPHEGKVANITKVTSSNMEHTITQASKAKEVVVLIGHSLLPTFQDLEKDILHFQAGNKGRFSVAIVDPDRSADVVARFRPKQIPVAYVVKDGASIAEFNSLNKEPVAQWLDHFVSRETIPNEKEGDVDKQIDPRLWRAAELVNAGDFRAALALYEQLPQDATVKRAHAAVSVLARMSVADRGEDPIEKSRRDPDDVNKALAAADMYVLMNQPDTALAHLAALLPKPEAARRIVELLNLFDPLDLVALEIRAQVGNAMS	not soluble
GSFTSSGCQEANYGALLRELCLTQFQVDMEAVGETLWCDWGRTIRSYRELADCTWHMAEKLGCFWPNAEVDRFFLAVHGRYFRSCPISGRAVR	soluble
MLDGLVVGGGLAGLTAARVLTRAGRRVRVLEAAPEVGGRVRSRELEGFTLDAGFQVLFPAYPAVRRQLNLDALDLVPLPSAAALRRGAREDVLGSPLDDLASLPSTLKSGALTLGDKLRVARLAASLRTPAAHELLIGSDESTESFLRGQGFSEAALDHFFRPFFGGIFLRRDLATSARLFRYYFRMLMDGGAALPRRGMGELSRQLAQGSDLLTGVRVSRLLPRPGYVTAVTSAGEIDARQVIVATEAPTASDLTGEALSRGALSSTYLYYATPQRISGQHRLLLNAETGLINNAQWTSLAVPGRAPTGQHLLTVTVLGLPDLDDASLDARVRGELTRWYGAEAVGTLRLLMLERIPYAQFEQPAGYAATLPGHATSLPGVLLASEITSMSGIQGALESGEKAAAIVLGDLAALSRPRGALEHHHHHH	not soluble
VIADDFTGATDIASFLVENGMPTVQINDVPTGTQPEGCDAVVISLKTRSCPAQEAIKQSLAALVWLKKQGCQQVYFKYCSTFDSTAEGNIGPVTDALMVALDTSFTVISPALPVNGRTVYQGYLFVMNHLLAESGMRHHPINPMTDSYLPRLMEAQAQGRCGVIPAQTLDEGVAATRAALSRLQQEGYRYAVLDALNERHLEIQGEVLRDAPLVTGGSGLAMGLARQWAKHGVSQARSAGYPLSGRAVVLSGSCSQMTNQQVAFYRQHAPTRDVDVARCLSSETREAYAEALAQWVLSQDSELAPMISATASTQALAAIQQQYGATEASHAVEALFSLLAARLAEGGITRFIVAGGETSGVVTQSLGITGFHIGPCISPGVPWVNALHAPVSLALKSGNFGDES	not soluble
GSQITGTCPSGCSGDCYPECPPGCCGQVNLN	soluble
MNVTPWEVEGVIDYSKLIEEFGMQPFSEVLPEIDNPHILMRRGAIFGHRDYWRIIEAMQKKEPWAVMSGFMPSGLPHFGHKMTMDEIVWHQSAGGKAFVAIADMEAHSVRGLSWEKTRELGMLYIKSIIALGLREDAVIYFQSKSSHVKDLAFELSAEVNFSELRAIYGFNSDTSLAKMFVTAIQAADILHPQLSDFGGPKPVVVPVGADQDPHMRLTRDLAARISIFSFEPVEGGVRVRSRKGAEYLSSLRDLEFDKKIYEEHMDIFGEAEEIERAVRKIEVEIGGFAFIPPSSTYHRFTTGLTGGKMSSSKPESYISLLDPPEEGAKKVMKAFTGGRATAEEQRRLGGEPDRCVVFELYSFHLIDSDEELNQIEAECREGRLLCGKCKKMAAELVKSFLKEHQEKMEAVDLSNYTIIG	not soluble
MSSFTHFNDQGRAKMVDISDKKATVRTAIACSSIVVTKEIYDKISHNEIGKGDVLAVAQIAGIMAAKRTSDIIPMCHPLLLKGVDVSFDWKQSDEQYRLLIEVKVKTEGSTGVEMEALTAASATALTVYDMCKAVDKGMIIGETYLLEKTGGKSGDYTRKS	not soluble
MSLSGIYERLQSLESLDLKSLDKNRTMLLIVDINKGFAKEGALYSDRIEKLISPISNLANYALNSGIRVKAFTDYHTEDSIELKAYPKHCMKDTDEWELVDELNLEGIEVIKKNSTNGFLEENFILNKEEIDNVIIVGDCTDICIYQLAISLRAEFNRVNKDGEIYVPKKLVDTFDMPMHKANFMNYVFLNSMLDNGVKVIEDIILDEGHHHHHH	soluble
MGSDKIHHHHHHAQNRNTSICRLGFTYDISQSKNWGNNKPVIKSIIPYSSAEQAGIKKYDVIEEINGVPVTEVSVDEIPQLLNPAGRNDVLLTISNLSSPSKQVLVKKDCKKSNAITEDQLASAYAMYSLETTNEQEFVCPFKTTVTSDGVDFGNFKTFAFSTIDENNRKLETVINECIENELTKKGLTVDIAKPDLLIQTFYFFDKNPNYLGANKVLVEKEPTYRYNFSHSKMEKFPFLNYAAAEAEAEYLLQFGIRIIDQKDIPGRVLWECEANELLEDSYRLDEYARVHVPLMCMQYPYTKYGRNVPFKVSKKTYNYTGISYDIDKLDQVVDVDRNSPAYAAGIRPRDIIEKIGRHKMDHSAEEFSSAYKRFITNTMQYRDPKTMFTDANGFKYCMFWDVFKYPQIADASQSSDYLPAFSYLYYFAPYINPSGNNACTFNIKRGKTKLEVIIRPTIRSEVTVEIK	not soluble
MGSDKIHHHHHHMRKDISTNDKDINDLFLKVVDLVTQARERVATAINIAEVFTKFHIGQYIVEYEQKGETRAEYGKAVLKELSKRLTDRLGDGWSYSTLKNIRQFYIVFSKGLTSGCPKSSQKANQWLADYSKAEEHISEPTFALSWSHYLILMRVENPDARSFYEIECTQQQWSKRQLSRQVGSCLYERLALSRNKDEVMRLAKEGQTIGKPSDIIKNPITLEFLGLKPDAVYSESKLENAIINKMQQFLLELGKGFLFEARQKRFTFDEQHFFVDLVFYNRLLQCYVLIDLKIDKLTHQDLGQMQMYVNYYDRYVKQDFEKPTIGILLCKEKNDALVELTLPKDANIYASAYQLYLPNKALLQAKVKEWIEEFEENEELKKLEENE	not soluble
MGSDKIHHHHHHMEEEMLKCKRLFVSDMDGTFYLGNTLLPGSLDFAMAVHRLGARLVFLTNNSSRTPEEYIRKLEKMGVDRKLFQVYTSGEATISFLKRDFAKKKAFLLSTPSVREMFEKGGVMLDDFDPEVLVLAFDTSITYEKIRRAALLIRQGIPYVASHPDINCPTEEGPIPDVGSLISLFETSTGRRPDHIIGKPDPAILKMVMEDFDCSQEETVVIGDRLYTDIECGLKAEVDTFLVLSGETTRDMIPDRHSYKVVENVGSLAKKIRDHDTV	not soluble
MMNYNTPKVSIVVPSLNSISYIRECIDSILNQTLKDIEILCIDANSTDGTLEVLKNYEKKDKRLRVIISDKKSYGYQMNLGIKEAKGEYLGIVESDDYIKTNMYERLYEIAKKNDCEVVKGDFYIFAYGKTEYVNVLRNSCEDIYNYKVNWNKDIRIFLGSDGINPIGIYRLDLLRTNQIKLNETPGASYQDNGLWFQIFALAKSIYFINEAFYMLRRDNPNSSVKSKEKVYCACEEYDFIRDFLKKHPDLEKTLAPICALHRFGNYMFTLERIDERYKLDFLKRFSQDFRKILKDKELDENLFGNINMQRINKIIENPVIYYYFSRGARARLQNQLVYRLGKVVVEAKSFNKIIKLPFLMLKICLEHNFEHKVYRSIVQFRPDLKLLPLECYLDYHEALVIKEHLSYKFGKLILLSFKGWYKGKIFILPFMLKKRYKEYKNKMILEHHHHHH	not soluble
VQEPLRVPPSAPARLVVLASGTGSLLRSLLDAAVGDYPARVVAVGVDRECRAAEIAAEASVPVFTVRLADHPSRDAWDVAITAATAAHEPDLVVSAGFMRILGPQFLSRFYGRTLNTHPALLPAFPGTHGVADALAYGVKVTGATVHLVDAGTDTGPILAQQPVPVLDGDDEETLHERIKVTERRLLVAAVAALATHGVTVVGRTATMGRKVTIG	soluble
MVASCKSTSQPVSLSQKDSSPDFNRCRNDSEDTVNLTGSGDIYIDKESSQKALDDLLRKVTLDGGISLKDAKSSEILAAYERKIQMLQLELQMKNVPKPVVEIETTSQKIRDLAQECEALRDSNKQLTDHMTRGNLEINQLKVQLEEVKQKCDSIETSLGMCITEKAGLKTQLTESLQNAERNVHTAQNEISKLNTELAQSVTRIELFLAENRELKQEFEEKVVECEVLKEHIRQIDLELKNKQSDMERALLQISAAEQKAAKKELELIEAEKHLKLYESRLSDRERDLNAKNLEIDRLKLDLDAARRNLQKLEQMREAMLSLASSSSN	not soluble
